Test results: article PMC3478282, “Probing the Putative Active Site of YjdL: An Unusual Proton-Coupled Oligopeptide Transporter from E. coli” (PLoS ONE, 2012)
Numbering of substitutions follows the chain as printed. Read-outs that look alike come from different tables or passages of the source. Residues, ends and D or L forms follow the SMILES beside them.

How the values were obtained:
YjdL Tyr25Phe (E. coli) [1] = molecular target: YjdL Tyr25Phe (E. coli) (UniProt P39276)
[2] = molecular target: YjdL from E. coli, wild type (E. coli) (UniProt P39276)
YjdL Tyr58Phe (E. coli) = YjdL Tyr58Phe (E. coli) (UniProt P39276)
YjdL Tyr113Phe (E. coli) = YjdL Tyr113Phe (E. coli) (UniProt P39276)
YjdL Tyr21Phe (E. coli) = YjdL Tyr21Phe (E. coli) (UniProt P39276)
YjdL-Trp278Phe (E. coli) = YjdL-Trp278Phe (E. coli) (UniProt P39276)
YjdL-Ala281Phe (E. coli) [3] = molecular target: YjdL-Ala281Phe (E. coli) (UniProt P39276)
[4] = molecular target: YjdL from E. coli, wild type (E. coli) (UniProt P39276); remark: listed apart in the source
WT-YjdL = molecular target: T1, WT-YjdL (Escherichia coli, UniProt P39276); assay: cell-based; type: cell-based, E. coli; settings: for IC50: IC50 (inhibition of β-Ala-Lys(AMCA) uptake), WT-YjdL a
T1 construct: expressed in transfected cells; host or cells: E. coli BL21(DE3)pLysS, pTTQ18-yjdL, IPTG-induced
T1 sequence (P39276 1-485): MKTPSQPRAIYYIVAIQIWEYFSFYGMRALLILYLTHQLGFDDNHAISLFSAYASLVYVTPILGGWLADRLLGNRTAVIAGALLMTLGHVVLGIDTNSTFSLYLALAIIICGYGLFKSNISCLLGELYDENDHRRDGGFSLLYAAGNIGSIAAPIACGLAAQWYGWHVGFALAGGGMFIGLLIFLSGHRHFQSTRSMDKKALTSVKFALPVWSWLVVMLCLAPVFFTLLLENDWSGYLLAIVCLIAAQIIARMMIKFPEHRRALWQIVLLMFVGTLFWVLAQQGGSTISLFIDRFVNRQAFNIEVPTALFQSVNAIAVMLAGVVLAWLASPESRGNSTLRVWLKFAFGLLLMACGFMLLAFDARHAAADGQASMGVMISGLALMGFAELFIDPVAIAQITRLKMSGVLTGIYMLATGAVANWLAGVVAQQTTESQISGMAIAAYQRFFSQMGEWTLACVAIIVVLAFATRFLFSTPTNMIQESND
Method: (§1) Plasmids were transformed into E. coli BL21(DE3)pLysS cells by heat shock and transformants were selected on agar plates containing 100 µg/mL ampicillin and 34 µg/mL chloramphenicol. Single transformants were inoculated into 2 mL LB-media with antibiotics as above and grown overnight. The cultures were diluted 1∶50 in 5 mL LB-media with antibiotics as above, and at an OD600 of 0.5–0.8 protein expression was induced by the addition of 1 mM isopropyl β-D-1-thiogalactopyranoside (IPTG). […]
(§2) Uptake assays were performed as previously described, [20]. In a final assay volume of 100 µL; 0.2 mM β-Ala-Lys-N-7-amino-4-methylcoumarin-3-acetic acid (β-Ala-Lys(AMCA), Biotrend) (10 µL) and various concentrations of ligands (purchased from Bachem or Sigma-Aldrich) or uptake buffer (50 µL) were incubated with bacterial cell suspension (OD600 = 10, 40 µL) at 37°C. After 5 min, the uptake was stopped by addition of 500 µL ice-cold uptake buffer followed by immediate centrifugation and washing twice in ice-cold uptake buffer. Finally the cell pellet was resuspended in 100 µL uptake buffer, and the uptake was quantified by fluorescence measurements (excitation at 340 nm and emission at 460 nm) on a Safire 2 fluorimeter. Non-specific uptake was measured as described above on IPTG-induced E. coli BL21(DE3)pLysS cells harboring the empty pTTQ18 vector. All uptake assay experiments were reproduced at least three times independently and data analyses were performed using GraphPad Prism ver. 5.

YjdL Tyr25Phe = molecular target: T2, YjdL Tyr25Phe (Escherichia coli, UniProt P39276, Y25F); assay: β-Ala-Lys(AMCA) uptake and inhibition assay, YjdL Tyr25Phe; type: cell-based, E. coli; settings: 0.2 mM β-Ala-Lys(AMCA), 5 min incubation, pH 6.5; ±SEM, n≥3
T2 construct: expressed in transfected cells; host or cells: E. coli BL21(DE3)pLysS, pTTQ18-yjdL mutant (QuikChange)
T2 sequence (P39276 1-485 Y25F): T1 sequence (P39276 1-485) with Y25F
Method: (§3) Plasmids were transformed into E. coli BL21(DE3)pLysS cells by heat shock and transformants were selected on agar plates containing 100 µg/mL ampicillin and 34 µg/mL chloramphenicol. Single transformants were inoculated into 2 mL LB-media with antibiotics as above and grown overnight. The cultures were diluted 1∶50 in 5 mL LB-media with antibiotics as above, and at an OD600 of 0.5–0.8 protein expression was induced by the addition of 1 mM isopropyl β-D-1-thiogalactopyranoside (IPTG). The cells were harvested after three hours of induction by centrifugation and resuspended in uptake buffer (50 mM MES pH 6.5, 140 mM NaCl, 5.4 mM KCl, 1.8 mM CaCl2, 0.8 mM MgSO4, and 5 mM glucose).
as §2

YjdL Ala281Phe = molecular target: T3, YjdL Ala281Phe (Escherichia coli, UniProt P39276, A281F); assay: β-Ala-Lys(AMCA) uptake and inhibition assay, YjdL Ala281Phe; type: cell-based, E. coli; settings: for IC50: 0.2 mM β-Ala-Lys(AMCA), 5 min incubation, pH 6.5, ±SEM, n≥3
T3 construct: host or cells: E. coli BL21(DE3)pLysS
T3 sequence (P39276 1-485 A281F): T1 sequence (P39276 1-485) with A281F
Method: as §3, §2

WT-YdgR = molecular target: T4, WT-YdgR (Escherichia coli, UniProt P77304); assay: cell-based; type: cell-based, E. coli; settings: 25 mM Tris-HCl, 50 mM MOPS pH 7.4, 0.2 mM β-Ala-Lys(AMCA), 5 min
T4 construct: expressed in transfected cells; host or cells: E. coli BL21(DE3)pLysS, pTTQ18-ydgR, IPTG-induced
T4 sequence (P77304 1-500): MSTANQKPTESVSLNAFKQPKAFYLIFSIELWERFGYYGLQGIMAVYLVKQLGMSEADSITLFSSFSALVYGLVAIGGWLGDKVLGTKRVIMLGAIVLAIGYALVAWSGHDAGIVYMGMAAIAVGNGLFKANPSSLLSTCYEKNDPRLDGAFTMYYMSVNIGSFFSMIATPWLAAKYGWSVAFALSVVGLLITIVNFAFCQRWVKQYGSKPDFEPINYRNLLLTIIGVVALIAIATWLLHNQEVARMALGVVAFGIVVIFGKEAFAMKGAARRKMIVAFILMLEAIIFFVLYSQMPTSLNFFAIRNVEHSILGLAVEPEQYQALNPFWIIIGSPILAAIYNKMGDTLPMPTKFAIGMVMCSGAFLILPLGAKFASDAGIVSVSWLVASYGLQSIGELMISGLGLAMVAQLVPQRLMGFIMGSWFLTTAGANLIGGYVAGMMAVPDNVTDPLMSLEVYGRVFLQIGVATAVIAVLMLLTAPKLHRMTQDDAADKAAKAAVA
Method: as §1, §2

YjdL Tyr25Phe (E. coli) [5] = molecular target: YjdL Tyr25Phe (E. coli) (UniProt P39276); remark: listed apart in the source
[6] = molecular target: YjdL from E. coli, wild type (E. coli) (UniProt P39276); remark: listed apart in the source
YjdL-Ala281Phe (E. coli) [7] = molecular target: YjdL-Ala281Phe (E. coli) (UniProt P39276); remark: listed apart in the source
[8] = molecular target: YdgR from E. coli, wild type (E. coli MG1655) (UniProt P77304)
[9] = molecular target: YdgR-Tyr71Phe (E. coli MG1655) (UniProt P77304)
[10] = molecular target: YdgR-Tyr292Phe (E. coli MG1655) (UniProt P77304)
[11] = molecular target: YdgR-Tyr38Phe (E. coli MG1655) (UniProt P77304)
[12] = molecular target: YdgR-Tyr292Ala (E. coli MG1655) (UniProt P77304)

Row | IC50 of inhibition of β-Ala-Lys(AMCA) uptake into E. coli cells (0.2 mM substrate, 5 min, pH 6.5) (YjdL Tyr25Phe (E. coli) [1]) | IC50 of inhibition of β-Ala-Lys(AMCA) uptake into E. coli cells (0.2 mM substrate, 5 min, pH 6.5) [2] | IC50 of inhibition of β-Ala-Lys(AMCA) uptake into E. coli cells (0.5 mM substrate, 15 min, pH 6.5) [2] | IC50 of inhibition of β-Ala-Lys(AMCA) uptake into E. coli cells (0.5 mM substrate, 15 min, pH 6.5) (YjdL Tyr58Phe (E. coli)) | IC50 of inhibition of β-Ala-Lys(AMCA) uptake into E. coli cells (0.2 mM substrate, 5 min, pH 6.5) (YjdL Tyr113Phe (E. coli)) | IC50 of inhibition of β-Ala-Lys(AMCA) uptake into E. coli cells (0.2 mM substrate, 5 min, pH 6.5) (YjdL Tyr21Phe (E. coli)) | IC50 of inhibition of β-Ala-Lys(AMCA) uptake into E. coli cells (0.2 mM substrate, 5 min, pH 6.5) (YjdL-Trp278Phe (E. coli)) | IC50 of inhibition of β-Ala-Lys(AMCA) uptake into E. coli cells (0.2 mM substrate, 5 min, pH 6.5) (YjdL-Ala281Phe (E. coli) [3]) | β-Ala-Lys(AMCA) uptake (0.5 mM) left with 50 mM competitor, E. coli cells, pH 6.5 [4] | IC50 of inhibition of β-Ala-Lys(AMCA) uptake into E. coli cells (0.2 mM substrate, 5 min, pH 6.5) (YjdL Tyr25Phe (E. coli) [5]) | IC50 of inhibition of β-Ala-Lys(AMCA) uptake into E. coli cells (0.2 mM substrate, 5 min, pH 6.5) [6] | IC50 of inhibition of β-Ala-Lys(AMCA) uptake into E. coli cells (0.2 mM substrate, 5 min, pH 6.5) (YjdL-Ala281Phe (E. coli) [7]) | Molecule | increase of IC50 compared to the Ala-Lys value, WT-YjdL (WT-YjdL) | IC50 (WT-YjdL) | IC50 (YjdL Tyr25Phe) | IC50 (YjdL Ala281Phe) | also measured
1 | 33.7 mM | 2.4 mM | 2.4 mM | 24.1 mM | 1.3 mM | 4.7 mM | 2.8 mM | 33.2 mM | < 10% |  |  |  | Tyr-Ala (peptide) |  |  |  |  | 
2 |  |  |  |  |  |  |  |  |  |  |  |  | NCCCC[C@H](NC(=O)[C@@H](N)Cc1ccc(O)cc1)C(=O)O [Tyr-Lys] (H-Tyr-Lys-OH) | approximately 2 fold | 550 ± 40 µM | 670 ± 80 µM | 30 µM | decrease of IC50 compared to Ala-Lys, Ala281Phe (YjdL Ala281Phe): approximately 10 fold
3 |  |  |  |  |  |  |  |  |  |  |  |  | Tris |  |  |  |  | inhibition of β-Ala-Lys(AMCA) uptake, WT-YjdL (WT-YjdL; 25 mM Tris-HCl, 50 mM MOPS pH 7.4, 0.2 mM β-Ala-Lys(AMCA), 5 min): weak; inhibition of β-Ala-Lys(AMCA) uptake, WT-YdgR (WT-YdgR): no significant inhibition
4 |  |  |  |  |  |  |  |  |  | 0.58 mM | 0.6 mM | 0.09 mM | Trp-Lys (peptide) |  |  |  |  | 
5 |  |  |  |  |  |  |  |  |  |  |  |  | NCCCC[C@H](NC(=O)[C@@H](N)Cc1c[nH]c2ccccc12)C(=O)O [Trp-Lys] (H-Trp-Lys-OH) | approximately 2 fold | 600 ± 70 µM | 580 ± 60 µM | 90 ± 10 µM | 
6 |  |  |  |  |  |  |  |  |  | 0.61 mM | 0.53 mM | 0.17 mM | Met-Lys (peptide) |  |  |  |  | 
7 |  |  |  |  |  |  |  |  |  | 0.67 mM | 0.55 mM | 0.03 mM | Tyr-Lys (peptide) |  |  |  |  | 
8 |  |  |  |  |  |  |  |  |  |  |  |  | CSCC[C@H](N)C(=O)N[C@@H](CCCCN)C(=O)O [Met-Lys] (H-Met-Lys-OH) | approximately 2 fold | 530 ± 30 µM | 610 ± 20 µM | 170 ± 10 µM | 
9 | > 50 mM | 2.8 mM | 2.2 mM | 28.1 mM | 1.9 mM | 4.5 mM | 9.9 mM | > 50 mM | < 10% |  |  |  | Ala-Ala (peptide) |  |  |  |  | IC50 of inhibition of β-Ala-Lys(AMCA) uptake into E. coli cells (0.2 mM substrate, 5 min, pH 6.5) [8]: 0.39 mM; IC50 of inhibition of β-Ala-Lys(AMCA) uptake into E. coli cells (0.5 mM substrate, 15 min, pH 6.5) [8]: 1.04 mM; IC50 of inhibition of β-Ala-Lys(AMCA) uptake into E. coli cells (0.2 mM substrate, 5 min, pH 6.5) [9]: 0.37 mM; IC50 of inhibition of β-Ala-Lys(AMCA) uptake into E. coli cells (0.2 mM substrate, 5 min, pH 6.5) [10]: 0.15 mM; IC50 of inhibition of β-Ala-Lys(AMCA) uptake into E. coli cells (0.5 mM substrate, 15 min, pH 6.5) [11]: 0.92 mM; IC50 of inhibition of β-Ala-Lys(AMCA) uptake into E. coli cells (0.2 mM substrate, 5 min, pH 6.5) [12]: 0.59 mM
10 | 36.1 mM | 0.6 mM | 1.9 mM | 2.5 mM | 1.1 mM | 1.1 mM | 0.9 mM | 21.7 mM | < 10% |  |  |  | Ala-Gln (peptide) |  |  |  |  | 
